Measurements as given in publication PMC8245419, “Structure-based insights into evolution of rhodopsins” (Communications Biology, 2021).
Blank lines part the entries; values can stand above or below the compound they belong to.

How the values were obtained:
[1] = target: Leptosphaeria rhodopsin LR, N-terminally truncated (residues 49–313) (Leptosphaeria maculans); experiment: cross-linking; glutaraldehyde vapor for 30 min, then gradient SDS-PAGE 18.5-8%; protein in DDM micelles; untreated samples as control
[2] = target: Leptosphaeria rhodopsin LR, N-terminally truncated (residues 49–313) (Leptosphaeria maculans); experiment: SEC; Superdex 200 Increase 10/300 GL, 0.05% DDM micelles; masses calculated from retention volume at pH 8.0 (results; the methods give a SEC buffer of pH 6.5, 0.2 M NaCl); trimer to monomers
[3] = target: T1, LR (Mac), LR 1–313 (Plenodomus lingam, UniProt Q9HGT7); experiment: X-ray crystallography, […] Å; format: binding; conditions: covalent; retinal Schiff base at K270; pH 7.0
T1 construct: gene ops; full-length 1-313, C-terminal polyhistidine tag, codon-optimised synthetic gene, expressed in Leishmania tarentolae (LEXSY), DDM; likely trimer; residues 42-286 resolved
T1 sequence (Q9HGT7 1-313): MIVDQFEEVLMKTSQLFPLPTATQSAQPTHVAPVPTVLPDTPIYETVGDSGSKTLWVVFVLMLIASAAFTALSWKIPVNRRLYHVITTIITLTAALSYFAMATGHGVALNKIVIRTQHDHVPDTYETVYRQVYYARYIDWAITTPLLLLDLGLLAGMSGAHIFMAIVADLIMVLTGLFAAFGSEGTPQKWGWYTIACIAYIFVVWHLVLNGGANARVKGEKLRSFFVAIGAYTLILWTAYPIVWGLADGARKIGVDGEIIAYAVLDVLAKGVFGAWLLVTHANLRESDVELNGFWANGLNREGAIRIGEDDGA

[4] = target: T2, LR 49–313 (Plenodomus lingam, UniProt Q9HGT7); experiment: time-resolved absorption spectroscopy (photocycle); format: binding; conditions: covalent; DDM micelles; 5 μM all-trans-retinal added at solubilization
T2 construct: gene ops; N-terminally truncated 49-313, C-terminal polyhistidine tag, codon-optimised synthetic gene, expressed in Leishmania tarentolae (LEXSY), DDM; mostly monomer
T2 sequence (Q9HGT7 49-313): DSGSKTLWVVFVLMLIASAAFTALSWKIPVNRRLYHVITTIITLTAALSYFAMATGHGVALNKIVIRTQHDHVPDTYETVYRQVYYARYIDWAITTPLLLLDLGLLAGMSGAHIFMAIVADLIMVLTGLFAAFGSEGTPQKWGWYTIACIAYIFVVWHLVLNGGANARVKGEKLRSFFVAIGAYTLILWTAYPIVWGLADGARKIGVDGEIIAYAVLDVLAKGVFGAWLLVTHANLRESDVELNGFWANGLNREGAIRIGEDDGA

[5] = target: Leptosphaeria rhodopsin LR (Mac), full-length (residues 1–313) (Leptosphaeria maculans); experiment: cross-linking; glutaraldehyde vapor for 30 min, then gradient SDS-PAGE 18.5-8%; protein in DDM micelles; untreated samples as control
[6] = target: Leptosphaeria rhodopsin LR (Mac), full-length (residues 1–313) (Leptosphaeria maculans); experiment: SEC; Superdex 200 Increase 10/300 GL, 0.05% DDM micelles; masses calculated from retention volume at pH 8.0 (results; the methods give a SEC buffer of pH 6.5, 0.2 M NaCl); trimer to monomers

stoichiometry N [1]: < 3
ratio between monomers and trimers (monomers:trimers) [2]: 40
stoichiometry N [2]: 3
Compound: Leptosphaeria rhodopsin LR, N-terminally truncated (residues 49–313) (domain or fragment)

Compound: CC1=C(/C=C/C(C)=C/C=C/C(C)=C/C=O)C(C)(C)CCC1 [ATR, all-trans-retinal]
X-ray crystallography, 2.2 Å [3]: retinal chromophore covalently attached to the K270 on the TM7
time-resolved absorption spectroscopy (photocycle) [4]: Both full-length and truncated constructs of LR in DDM micelles exhibit almost similar relaxation time

stoichiometry N [5]: < 3
ratio between monomers and trimers (monomers:trimers) [6]: 0.4
stoichiometry N [6]: 3
Compound: Leptosphaeria rhodopsin LR (Mac), full-length (residues 1–313) (natural protein)
